Read-outs that look alike come from different tables or passages of the source.
Columns and labels:
[1] = molecular target: T1, human CD47 (human, UniProt Q08722 19-139); test: BLI (Octet), His-tagged hCD47 on anti-Penta-HIS biosensor, antibody 1500-46.9 nM
T1 construct: also called hCD47

[2] = molecular target: T2, recombinant mouse VISTA (His-tagged) (mouse, UniProt Q9D659 33-191); test: BLI (Octet), 1:1 global fit, His-tagged mouse VISTA captured
T2 construct: also called murine VISTA; mVISTA
T2 sequence (looked up): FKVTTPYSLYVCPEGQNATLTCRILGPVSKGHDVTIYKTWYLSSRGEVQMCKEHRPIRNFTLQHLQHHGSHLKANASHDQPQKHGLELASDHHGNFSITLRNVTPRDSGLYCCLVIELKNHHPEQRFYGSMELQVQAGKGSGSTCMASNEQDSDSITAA

[3] = molecular target: T3, human B7H6 (human, UniProt Q68D85 25-262); test: ELISA, plate coated with the antigen
T3 construct: also called NCR3LG1
T3 sequence (looked up): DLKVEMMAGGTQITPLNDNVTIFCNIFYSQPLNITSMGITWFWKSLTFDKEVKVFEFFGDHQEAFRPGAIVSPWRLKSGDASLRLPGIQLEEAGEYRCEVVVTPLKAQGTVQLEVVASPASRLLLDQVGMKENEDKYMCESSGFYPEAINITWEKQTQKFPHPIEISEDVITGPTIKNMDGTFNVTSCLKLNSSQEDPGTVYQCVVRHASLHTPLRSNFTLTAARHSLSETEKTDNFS

[4] = molecular target: T4, human B7H3 (human, UniProt Q5ZPR3 29-461, limits assumed); test: ELISA, plate coated with the antigen
T4 construct: also called CD276
T4 sequence (looked up): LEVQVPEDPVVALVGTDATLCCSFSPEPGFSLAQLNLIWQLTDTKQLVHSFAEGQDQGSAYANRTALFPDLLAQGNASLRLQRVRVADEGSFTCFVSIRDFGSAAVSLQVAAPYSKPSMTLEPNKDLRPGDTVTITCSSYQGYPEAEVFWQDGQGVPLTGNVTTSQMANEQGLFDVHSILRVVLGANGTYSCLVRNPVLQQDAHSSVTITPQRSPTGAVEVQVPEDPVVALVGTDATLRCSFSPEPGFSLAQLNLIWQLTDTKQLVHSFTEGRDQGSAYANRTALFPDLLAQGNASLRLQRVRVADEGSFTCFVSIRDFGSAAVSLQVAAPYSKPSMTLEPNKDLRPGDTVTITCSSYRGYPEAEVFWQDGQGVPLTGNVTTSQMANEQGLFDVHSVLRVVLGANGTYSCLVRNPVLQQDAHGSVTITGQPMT

[5] = molecular target: T5, human CTLA4 (human, UniProt P16410 36-162); test: ELISA, plate coated with the antigen
T5 sequence (P16410 36-162 limits assumed): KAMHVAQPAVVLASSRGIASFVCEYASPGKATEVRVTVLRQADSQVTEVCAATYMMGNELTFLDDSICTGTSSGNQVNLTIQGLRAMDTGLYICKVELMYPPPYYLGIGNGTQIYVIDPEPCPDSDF

[6] = molecular target: T6, human B7H7 (human, UniProt Q9UM44 23-344); test: ELISA, plate coated with the antigen
T6 construct: also called HHLA2
T6 sequence (looked up): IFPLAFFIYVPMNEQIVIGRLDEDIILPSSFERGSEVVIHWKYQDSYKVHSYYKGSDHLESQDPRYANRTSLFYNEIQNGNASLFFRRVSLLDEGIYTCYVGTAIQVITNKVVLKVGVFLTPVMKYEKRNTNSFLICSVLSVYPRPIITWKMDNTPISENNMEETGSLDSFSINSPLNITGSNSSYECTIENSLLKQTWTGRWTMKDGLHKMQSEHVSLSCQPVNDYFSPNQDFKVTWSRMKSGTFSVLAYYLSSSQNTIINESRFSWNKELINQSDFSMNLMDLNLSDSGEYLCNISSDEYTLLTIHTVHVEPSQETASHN

[7] = molecular target: T7, human B7H4 (human, UniProt Q7Z7D3 25-258, limits assumed); test: ELISA, plate coated with the antigen
T7 construct: also called VTCN1
T7 sequence (looked up): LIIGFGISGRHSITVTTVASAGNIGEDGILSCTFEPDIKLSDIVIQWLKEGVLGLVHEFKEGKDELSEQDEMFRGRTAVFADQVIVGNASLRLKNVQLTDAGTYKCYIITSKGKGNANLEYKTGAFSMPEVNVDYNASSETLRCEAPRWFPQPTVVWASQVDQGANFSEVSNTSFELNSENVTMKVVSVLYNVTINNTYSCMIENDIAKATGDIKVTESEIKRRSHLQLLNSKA

[8] = molecular target: T3, human B7H6; test: ELISA, plate coated with the antigen; remark: listed apart in the source
[9] = molecular target: T4, human B7H3; test: ELISA, plate coated with the antigen; remark: listed apart in the source
[10] = molecular target: human PD-1 (human, UniProt Q15116 25-167); test: ELISA, plate coated with the antigen
human PD-1, sequence (Q15116 25-167 limits assumed): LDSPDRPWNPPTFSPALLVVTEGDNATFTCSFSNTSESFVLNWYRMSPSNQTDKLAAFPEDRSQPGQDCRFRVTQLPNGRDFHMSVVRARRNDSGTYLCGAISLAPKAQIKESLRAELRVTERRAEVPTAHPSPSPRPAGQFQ

[11] = molecular target: T5, human CTLA4; test: ELISA, plate coated with the antigen; remark: listed apart in the source
[12] = molecular target: T6, human B7H7; test: ELISA, plate coated with the antigen; remark: listed apart in the source
[13] = molecular target: T7, human B7H4; test: ELISA, plate coated with the antigen; remark: listed apart in the source
[14] = molecular target: T8, recombinant human VISTA (His-tagged) (human, UniProt Q9H7M9 33-194); test: antigen-binding ELISA; HMBD-002 10 mg/mL in F3, day 0
T8 construct: bought soluble protein (Sino Biological); also called hVISTA; human VISTA polypeptide

[15] = molecular target: T9, human FcγRIII (CD16a) (human, UniProt P08637 17-208); test: ELISA, plate coated with human CD16a (FcγRIII), detection with HRP anti-human Fc antibody
T9 construct: also called human CD16a
T9 sequence (P08637 17-208 limits assumed): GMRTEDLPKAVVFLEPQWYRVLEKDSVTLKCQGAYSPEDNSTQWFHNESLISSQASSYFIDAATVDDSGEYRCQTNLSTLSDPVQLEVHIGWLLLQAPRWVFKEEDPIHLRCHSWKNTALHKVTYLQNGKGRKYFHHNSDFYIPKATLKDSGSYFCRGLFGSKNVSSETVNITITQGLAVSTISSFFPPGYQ

[16] = molecular target: T8, recombinant human VISTA (His-tagged); test: antigen-binding ELISA; HMBD-002 in F4, day 10 at 40°C
[17] = molecular target: T2, recombinant mouse VISTA (His-tagged); test: SPR (Biacore), VISTA-HIS captured, antibody as analyte, 1:1 model; SPR (Biacore), mouse VISTA

T1 sequence (Q08722 19-139 limits assumed): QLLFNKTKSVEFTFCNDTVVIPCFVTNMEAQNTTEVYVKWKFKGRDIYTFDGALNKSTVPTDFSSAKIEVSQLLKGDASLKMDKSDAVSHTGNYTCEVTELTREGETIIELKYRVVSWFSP

B1: anti-VISTA clone 4M2-C12 IgG1 (antibody)
heavy: not shown
light: DIVITQTPAILSTSPGEKVTMTCRASSSVGYIHWYQQKPGSSPKPWIYATSNLASGVPARFSGSGSGTSNSLTITRVEAEDAATYYCQQWSSYPPITFGGGTKLEVKRTVAAPSVFIFPPSDEQLKSGTASVVCLLNNFYPREAKVQWKVDNALQSGNSQESVTEQDSKDSTYSLSSTLTLSKADYEKHKVYACEVTHQGLSSPVTKSFNRGEC
notes: mouse variable regions on human IgG1/kappa constant regions; also called V4; V4pr
[1]
  binding result: no binding (tested: 1500 nM)
[2]
  Kd: 108 nM
  koff: 0.00656 s⁻¹
  kon: 60900 M⁻¹ s⁻¹

B2: anti-VISTA clone V4-C24 IgG1 (antibody, V domains shown)
VH: QVQLQESGPGLVKPSDTLSLTCTVSGYSITSDYTWNWIRQTPGKGLEWIGHITYSGSVSYNPSLRSRVTISRDTSKNQFSLKLSSVTAADTATYSCARALYYPWYFDVWGTGTTVTVSS
VL: EIVLTQSPATLSLSPGERATLSCRASSSVGYIHWYQQKPGQAPRPLIYTTSYRATGIPARFSGSGSGTDNTLTISSLEPEDSAVYYCQQWSSYPPITFGGGTKLEVKR
[3]
  binding result: no binding (tested: log -7.5 M)
[4]
  binding result: no binding (tested: log -7.5 M)
[5]
  binding result: no binding (tested: log -7.5 M)
[6]
  binding result: no binding (tested: log -7.5 M)
[7]
  binding result: no binding (tested: log -7.5 M)

B3: anti-VISTA clone V4-C26 IgG1 (antibody)
heavy: not shown
light: EIVLTQSPATLSLSPGERATLSCRASSSVGYIHWYQQKPGQAPRPIIYTTSNRATGIPARFSGSGSGTDNTLTISSLEPEDSAVYYCQQWSSYPPITFGGGTKLEVKRTVAAPSVFIFPPSDEQLKSGTASVVCLLNNFYPREAKVQWKVDNALQSGNSQESVTEQDSKDSTYSLSSTLTLSKADYEKHKVYACEVTHQGLSSPVTKSFNRGEC
[8]
  binding result: no binding (tested: log -7.5 M)
[9]
  binding result: no binding (tested: log -7.5 M)
[10]
  binding result: no binding (tested: log -7.5 M)
[11]
  binding result: no binding (tested: log -7.5 M)
[12]
  binding result: no binding (tested: log -7.5 M)
[13]
  binding result: no binding (tested: log -7.5 M)

B4: V4-C26 hIgG4 (antibody)
heavy: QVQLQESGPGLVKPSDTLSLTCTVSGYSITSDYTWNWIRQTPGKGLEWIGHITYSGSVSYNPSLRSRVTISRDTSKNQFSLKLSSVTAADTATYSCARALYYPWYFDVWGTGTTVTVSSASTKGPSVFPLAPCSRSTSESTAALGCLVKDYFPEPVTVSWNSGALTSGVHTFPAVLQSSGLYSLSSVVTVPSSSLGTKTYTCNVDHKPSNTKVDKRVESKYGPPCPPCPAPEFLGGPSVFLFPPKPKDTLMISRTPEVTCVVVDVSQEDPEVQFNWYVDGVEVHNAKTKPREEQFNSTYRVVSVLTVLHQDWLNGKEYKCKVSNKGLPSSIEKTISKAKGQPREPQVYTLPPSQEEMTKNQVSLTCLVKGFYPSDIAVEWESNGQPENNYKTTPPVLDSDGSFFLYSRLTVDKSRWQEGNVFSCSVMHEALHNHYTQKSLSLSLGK
light: B3 light
notes: human IgG4 (S228P)/kappa format; also called HMBD-002; HMBD-002-V4C26
[14]
  EC50: 0.0308 nM
[15]
  binding result: no binding (tested: about 2e-7 M)
[16]
  EC50: 0.0325 nM
[17]
  Kd: 0.549 nM

Source: patent US20250313631A1 (HUMMINGBIRD BIOSCIENCE PTE, published 2025)
